Laboratory results published in patent US20120058906A1 (published 2012).
Blank lines part the entries; values can stand above or below the binder they belong to.

Columns and labels:
[1] = target: T1, rHuman HGF R/c-MET/Fc Chimera, CF (R&D Systems Cat#358-MT/CF) (human, UniProt P08581 25-932); assay: MSD ECL multi-spot plate; Fab 280 nM; blank spot 1691
T1 construct: also called HGF R/Fc; hepatocyte growth factor receptor; Fc part of the bought chimera not given

[2] = target: T2, rHuman IGF-1 sR, (IGF-1 sR), CF (R&D Systems Cat#391-GR) (human, UniProt P08069 31-932); assay: as above
T2 construct: also called insulin-like growth factor-1 soluble receptor; IGF-R1

[3] = target: T3, rHuman ErbB2/Fc Chimera, CF (R&D Systems Cat#1129-ER) (human, UniProt P04626 23-652); assay: as above
T3 construct: also called HER2/neu; human epidermal growth factor 2 receptor; Fc part of the bought chimera not given

[4] = target: T4, rHuman Notch-1/Fc Chimera, CF (R&D Systems Cat#3647-TK) (human, UniProt P46531 19-526); assay: as above
T4 construct: Fc part of the bought chimera not given

[5] = target: T5, Recombinant Human DLL4 (R&D Systems Cat#1506-D4/CF) (human, UniProt Q9NR61 27-524); assay: as above
T5 construct: also called delta-like protein 4

[6] = target: T6, rHuman CD44/Fc Chimera, CF (R&D Systems Cat#3660-CD) (human, UniProt P16070 21-220); assay: as above
T6 construct: Fc part of the bought chimera not given

[7] = target: T1, rHuman HGF R/c-MET/Fc Chimera, CF (R&D …); assay: MSD ECL multi-spot plate; Fab 4.375 nM; blank spot 305
[8] = target: T2, rHuman IGF-1 sR, (IGF-1 sR), CF (R&D …); assay: as above
[9] = target: T3, rHuman ErbB2/Fc Chimera, CF (R&D …); assay: as above
[10] = target: T4, rHuman Notch-1/Fc Chimera, CF (R&D …); assay: as above
[11] = target: T5, Recombinant Human DLL4 (R&D Systems …); assay: as above
[12] = target: T6, rHuman CD44/Fc Chimera, CF (R&D Systems …); assay: as above
[13] = target: T1, rHuman HGF R/c-MET/Fc Chimera, CF (R&D …); assay: MSD ECL multi-spot plate; Fab 17.5 nM; blank spot 304
[14] = target: T2, rHuman IGF-1 sR, (IGF-1 sR), CF (R&D …); assay: as above
[15] = target: T4, rHuman Notch-1/Fc Chimera, CF (R&D …); assay: as above
[16] = target: T5, Recombinant Human DLL4 (R&D Systems …); assay: as above
[17] = target: T1, rHuman HGF R/c-MET/Fc Chimera, CF (R&D …); assay: MSD ECL multi-spot plate; Fab 70 nM; blank spot 635
[18] = target: T2, rHuman IGF-1 sR, (IGF-1 sR), CF (R&D …); assay: as above
[19] = target: T3, rHuman ErbB2/Fc Chimera, CF (R&D …); assay: as above
[20] = target: T4, rHuman Notch-1/Fc Chimera, CF (R&D …); assay: as above
[21] = target: T5, Recombinant Human DLL4 (R&D Systems …); assay: as above
[22] = target: T6, rHuman CD44/Fc Chimera, CF (R&D Systems …); assay: as above
[23] = target: T7, rHuman ErbB2/Fc Chimera, CF (R&D Systems Cat#1129-ER) (human, UniProt P04626 23-652); assay: MSD ECL multi-spot, Fab 2.38 uM, blank 526
T7 construct: Bought Fc chimera; also called HER2/neu; Fc part of the bought chimera not given

[24] = target: T8, rHuman Erythropoietin R/Fc Chimera, CF (R&D Systems Cat#963-ER) (human, UniProt P19235 25-250); assay: MSD ECL multi-spot, Fab 2.38 uM, blank 526
T8 construct: Bought Fc chimera; also called EPO R/Fc; EPOR; Fc part of the bought chimera not given
T8 sequence: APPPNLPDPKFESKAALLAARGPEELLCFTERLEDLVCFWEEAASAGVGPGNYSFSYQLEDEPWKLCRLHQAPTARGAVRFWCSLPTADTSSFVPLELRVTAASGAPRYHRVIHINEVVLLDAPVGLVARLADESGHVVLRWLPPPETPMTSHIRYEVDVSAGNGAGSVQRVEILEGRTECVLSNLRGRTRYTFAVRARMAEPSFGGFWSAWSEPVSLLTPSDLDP

[25] = target: T9, Recombinant Human DLL4 (R&D Systems Cat#1506-D4/CF) (human, UniProt Q9NR61 27-524); assay: MSD ECL multi-spot, Fab 2.38 uM, blank 526
T9 construct: Bought recombinant protein; also called rHuman DLL4; delta-like protein 4

[26] = target: T10, rHuman CD44/Fc Chimera, CF (R&D Systems Cat#3660-CD) (human, UniProt P16070 21-220); assay: MSD ECL multi-spot, Fab 2.38 uM, blank 526
T10 construct: Bought Fc chimera; Fc part of the bought chimera not given

[27] = target: T11, rHuman Notch-1/Fc Chimera, CF (R&D Systems Cat#3647-TK) (human, UniProt P46531 19-526); assay: MSD ECL multi-spot, Fab 2.38 uM, blank 526
T11 construct: Bought Fc chimera; Fc part of the bought chimera not given

[28] = target: T12, rHuman IGF-1 sR (insulin-like growth factor-1 soluble receptor), CF (R&D Systems Cat#391-GR) (human, UniProt P08069 31-932); assay: MSD ECL multi-spot, Fab 2.38 uM, blank 526
T12 construct: Bought soluble receptor; also called IGF-R1

[29] = target: T13, rHuman EGF R/Fc Chimera, CF (R&D Systems Cat#344-ER) (human, UniProt P00533 25-645); assay: MSD ECL multi-spot, Fab 2.38 uM, blank 526
T13 construct: Bought Fc chimera; Fc part of the bought chimera not given
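Further: blank spot per well as comparator with Hit at signal to blank ratio of 4 or more.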

ECL signal [1]: 3560 ECL signal
ECL signal [2]: 3530 ECL signal
ECL signal [3]: 3950 ECL signal
ECL signal [4]: 4380 ECL signal
ECL signal [5]: 8110 ECL signal
ECL signal [6]: 4070 ECL signal
ECL signal [7]: 193 ECL signal
ECL signal [8]: 369 ECL signal
ECL signal [9]: 384 ECL signal
ECL signal [10]: 480 ECL signal
ECL signal [11]: 558 ECL signal
ECL signal [12]: 424 ECL signal
ECL signal [13]: 565 ECL signal
ECL signal [14]: 626 ECL signal
ECL signal [15]: 680 ECL signal
ECL signal [16]: 1220 ECL signal
ECL signal [17]: 1290 ECL signal
ECL signal [18]: 1320 ECL signal
ECL signal [19]: 1360 ECL signal
ECL signal [20]: 1490 ECL signal
ECL signal [21]: 2750 ECL signal
ECL signal [22]: 1370 ECL signal
B1: Fab VH1-46_IGHD2-15*01_IGHJ2*01 & L12_IGKJ1*01 (Fab, V domains shown)
VH: QVQLVQSGAEVKKPGASVKVSCKASGYTFTSYYMHWVRQAPGQGLEWMGIINPSGGSTSYAQKFQGRVTMTRDTSTSTVYMELSSLRSEDTAVYYCAREGYCSGGSCYSYWYFDLWGRGTLVTVSS
VL: not shown

ECL signal [23]: 594
ECL signal [24]: 834
ECL signal [25]: 12200
ECL signal [26]: 666
ECL signal [27]: 636
ECL signal [28]: 691
ECL signal [29]: 681
B2: Fab VH5-51_IGHD5-18*01>3_IGHJ4*01 & V3-4_IGLJ1*01 (Fab, V domains shown)
VH: EVQLVQSGAEVKKPGESLKISCKGSGYSFTSYWIGWVRQMPGKGLEWMGIIYPGDSDTRYSPSFQGQVTISADKSISTAYLQWSSLKASDTAMYYCARRGYSYGYDYFDYWGQGTLVTVSS
VL: QTVVTQEPSFSVSPGGTVTLTCGLSSGSVSTSYYPSWYQQTPGQAPRTLIYSTNTRSSGVPDRFSGSILGNKAALTITGAQADDESDYYCVLYMGSGISYVFGTGTKVTVL
notes: Expressed in E. coli as Fab: heavy chain with CH1 plus Flag and His tags from Plasmid A, lambda light chain constant region from Plasmid E; also called Fab No. 2
